Measured values: paper PMC8416954

Columns and labels:
[1] = target: ectodomain of human syndecan-4 (natural isoform 2 of SDC-4) (human); assay: ion mobility mass spectrometry
[2] = target: ectodomain of human syndecan-4 (natural isoform 2 of SDC-4) (human); assay: SEC-MALS

ectodomain of human syndecan-4 (natural isoform 2 of SDC-4) (domain or fragment)
stoichiometry N [1]: 2
stoichiometry N [2]: 2
